Measured values reported in patent publication US20050250090A1, “Assay systems and methods for detecting molecules that interact with SK2 channels” (priority 2003, published 2005).

Target: human SK2 isoform hSK2A+ (small-conductance calcium-activated potassium channel protein), stably exp (human), Q9H2S1
Experiment: cell-based or functional assay

human SK2 isoform hSK2A+ (small-conductance calcium-activated potassium channel protein), stably exp (human), Q9H2S1, sequence (Q9H2S1 other isoform, or with tags, fused parts or gaps): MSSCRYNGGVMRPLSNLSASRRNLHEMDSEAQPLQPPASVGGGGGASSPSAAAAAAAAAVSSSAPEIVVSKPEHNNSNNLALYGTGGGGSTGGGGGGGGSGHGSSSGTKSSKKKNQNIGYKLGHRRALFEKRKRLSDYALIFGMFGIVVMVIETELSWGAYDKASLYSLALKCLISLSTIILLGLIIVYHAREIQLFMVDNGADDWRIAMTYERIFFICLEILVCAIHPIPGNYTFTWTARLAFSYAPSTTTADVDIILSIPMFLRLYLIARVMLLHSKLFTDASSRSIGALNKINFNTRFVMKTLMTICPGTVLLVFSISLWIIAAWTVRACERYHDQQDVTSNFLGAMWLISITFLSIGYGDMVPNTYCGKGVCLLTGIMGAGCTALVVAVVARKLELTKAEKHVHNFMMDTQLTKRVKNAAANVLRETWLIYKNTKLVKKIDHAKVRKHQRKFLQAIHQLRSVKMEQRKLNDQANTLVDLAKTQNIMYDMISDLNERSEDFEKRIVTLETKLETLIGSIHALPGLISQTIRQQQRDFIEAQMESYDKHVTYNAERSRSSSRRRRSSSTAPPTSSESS

Binder: AFCNLRMCQLSCRSLGLLGKCIGDKCECVKH (modifications not checked) [scyllatoxin, P16341 1-31]
- magnitude of the ATP/Tg induced decrease in fluorescence; concentration printed as 'tested at' (FIG. 9 concentration series): 1.1 nM
